Data as given in publication PMC11182772, “A non-canonical role of the inner kinetochore in regulating sister-chromatid cohesion at centromeres” (The EMBO Journal, 2024).

T1: GST-Scc1 (281–420)-SA2 (80–1060) sub-complex (UniProt O60216 281-420; Q8N3U4 80-1060)
T1 sequence (looked up) 1: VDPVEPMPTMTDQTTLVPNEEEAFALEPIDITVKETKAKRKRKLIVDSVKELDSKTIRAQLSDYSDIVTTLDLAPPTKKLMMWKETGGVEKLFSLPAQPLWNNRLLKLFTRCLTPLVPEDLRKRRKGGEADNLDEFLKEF
T1 sequence (looked up) 2: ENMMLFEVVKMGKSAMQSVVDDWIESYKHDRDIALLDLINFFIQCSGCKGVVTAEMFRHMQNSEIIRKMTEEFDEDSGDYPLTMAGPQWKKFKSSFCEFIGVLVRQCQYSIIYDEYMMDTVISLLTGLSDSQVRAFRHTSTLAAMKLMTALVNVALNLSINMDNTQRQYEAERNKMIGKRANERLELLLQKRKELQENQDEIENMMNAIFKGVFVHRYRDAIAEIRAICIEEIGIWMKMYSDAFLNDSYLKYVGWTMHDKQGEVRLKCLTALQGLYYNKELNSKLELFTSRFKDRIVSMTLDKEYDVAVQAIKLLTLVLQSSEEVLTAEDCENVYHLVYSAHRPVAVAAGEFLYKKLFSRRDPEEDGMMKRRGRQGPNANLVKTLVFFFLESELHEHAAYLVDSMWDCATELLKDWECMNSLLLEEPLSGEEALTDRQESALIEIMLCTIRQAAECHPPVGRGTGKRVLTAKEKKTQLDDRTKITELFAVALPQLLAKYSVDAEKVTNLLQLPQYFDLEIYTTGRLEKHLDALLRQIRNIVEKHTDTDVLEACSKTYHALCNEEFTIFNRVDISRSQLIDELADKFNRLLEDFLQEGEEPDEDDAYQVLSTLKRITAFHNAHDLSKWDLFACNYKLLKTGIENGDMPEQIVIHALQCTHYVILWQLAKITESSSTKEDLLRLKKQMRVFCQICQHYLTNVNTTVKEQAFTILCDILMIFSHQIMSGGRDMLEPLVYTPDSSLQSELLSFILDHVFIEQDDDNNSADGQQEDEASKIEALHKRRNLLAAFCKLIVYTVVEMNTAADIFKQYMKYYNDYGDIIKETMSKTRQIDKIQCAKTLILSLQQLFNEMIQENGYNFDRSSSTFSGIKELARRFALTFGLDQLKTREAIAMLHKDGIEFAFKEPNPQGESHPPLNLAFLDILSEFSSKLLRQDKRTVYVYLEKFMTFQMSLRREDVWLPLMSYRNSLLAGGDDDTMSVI


Experiments:
[1] = molecular target: T1, GST-Scc1 (281–420)-SA2 (80–1060) …; assay: pull-down; GST-Scc1 (281–420)-SA2 (80–1060) as bait, purified recombinant MBP fusion proteins as prey; immunoblot for MBP; details: both partners purified
[2] = molecular target: T1, GST-Scc1 (281–420)-SA2 (80–1060) …; assay: pull-down; MBP fusion protein as bait, eluted GST-Scc1 (281–420)-SA2 (80–1060) as prey; binding 2 h, three washes of 5 min in P150 buffer; immunoblot for GST; details: both partners purified

binding result [1] | binding result [2] | Binder
binds | – | MBP-Wapl (1–630) (domain or fragment, human, UniProt Q7Z5K2 1-630, looked up, human Wapl, residues 1–630, with all three FGF motifs; vector pMal-C2E; also called MBP-fused Wapl (1–630); source: E. coli BL21 (DE3), purified (amylose resin; on resin or eluted)) MTSRFGKTYSRKGGNGSSKFDEVFSNKRTTLSTKWGETTFMAKLGQKRPNFKPDIQEIPKKPKVEEESTGDPFGFDSDDESLPVSSKNLAQVKCSSYSESSEAAQLEEVTSVLEANSKISHVVVEDTVVSDKCFPLEDTLLGKEKSTNRIVEDDASISSCNKLITSDKVENFHEEHEKNSHHIHKNADDSTKKPNAETTVASEIKETNDTWNSQFGKRPESPSEISPIKGSVRTGLFEWDNDFEDIRSEDCILSLDSDPLLEMKDDDFKNRLENLNEAIEEDIVQSVLRPTNCRTYCRANKTKSSQGASNFDKLMDGTSQALAKANSESSKDGLNQAKKGGVSCGTSFRGTVGRTRDYTVLHPSCLSVCNVTIQDTMERSMDEFTASTPADLGEAGRLRKKADIATSKTTTRFRPSNTKSKKDVKLEFFGFEDHETGGDEGGSGSSNYKIKYFGFDDLSESEDDEDDDCQVERKTSKKRTKTAPSPSLQPPPESNDNSQDSQSGTNNAENLDFTEDLPGVPESVKKPINKQGDKSKENTRKIFSGPKRSPTKAVYNARHWNHPDSEELPGPPVVKPQSVTVRLSSKEPNQKDDGVFKAPAPPSKVIKTVTIPTQPYQDIVTALKCRREDK
binds | – | MBP-Sgo1 (230–400) (domain or fragment, human, UniProt Q5FBB7 230-400, looked up, human Sgo1, residues 230–400; vector pMal-C2E; also called recombinant MBP-Sgo1 (230–400); source: E. coli BL21 (DE3), purified (amylose resin)) DPLVNMHIPENVQHNACQWSKDQVNLSPKLIQPGTFTKTKEDILESKSEQTKSKQRDTQERKREEKRKANRRKSKRMSKYKENKSENKKTVPQKKMHKSVSSNDAYNFNLEEGVHLTPFRQKVSNDSNREENNESEVSLCESSGSGDDSDDLYLPTCKYIQNPTSNSDRPV
– | binds | MBP-CENP-U (1–200) (domain or fragment, human, UniProt Q71F23 1-200, looked up, human CENP-U, residues 1–200; vector pMal-C2E; also called MBP-fused CENP-U (1–200); source: E. coli BL21 (DE3), purified (amylose resin)) MAPRGRRRPRPHRSEGARRSKNTLERTHSMKDKAGQKCKPIDVFDFPDNSDVSSIGRLGENEKDEETYETFDPPLHSTAIYADEEEFSKHCGLSLSSTPPGKEAKRSSDTSGNEASEIESVKISAKKPGRKLRPISDDSESIEESDTRRKVKSAEKISTQRHEVIRTTASSELSEKPAESVTSKKTGPLSAQPSVEKENL
